Measured values from patent US20240352433, “ENZYMES WITH HEPN DOMAINS” (Metagenomi, Inc., published 2024).

Key:
MG103-6 = target: T1, MG103-6 (uncultivated organism); assay: crRNA processing by RNAseq: 6 nt trimmed from 5' of repeat, 30 nt repeat, 21 and 26 nt spacers
T1 chain: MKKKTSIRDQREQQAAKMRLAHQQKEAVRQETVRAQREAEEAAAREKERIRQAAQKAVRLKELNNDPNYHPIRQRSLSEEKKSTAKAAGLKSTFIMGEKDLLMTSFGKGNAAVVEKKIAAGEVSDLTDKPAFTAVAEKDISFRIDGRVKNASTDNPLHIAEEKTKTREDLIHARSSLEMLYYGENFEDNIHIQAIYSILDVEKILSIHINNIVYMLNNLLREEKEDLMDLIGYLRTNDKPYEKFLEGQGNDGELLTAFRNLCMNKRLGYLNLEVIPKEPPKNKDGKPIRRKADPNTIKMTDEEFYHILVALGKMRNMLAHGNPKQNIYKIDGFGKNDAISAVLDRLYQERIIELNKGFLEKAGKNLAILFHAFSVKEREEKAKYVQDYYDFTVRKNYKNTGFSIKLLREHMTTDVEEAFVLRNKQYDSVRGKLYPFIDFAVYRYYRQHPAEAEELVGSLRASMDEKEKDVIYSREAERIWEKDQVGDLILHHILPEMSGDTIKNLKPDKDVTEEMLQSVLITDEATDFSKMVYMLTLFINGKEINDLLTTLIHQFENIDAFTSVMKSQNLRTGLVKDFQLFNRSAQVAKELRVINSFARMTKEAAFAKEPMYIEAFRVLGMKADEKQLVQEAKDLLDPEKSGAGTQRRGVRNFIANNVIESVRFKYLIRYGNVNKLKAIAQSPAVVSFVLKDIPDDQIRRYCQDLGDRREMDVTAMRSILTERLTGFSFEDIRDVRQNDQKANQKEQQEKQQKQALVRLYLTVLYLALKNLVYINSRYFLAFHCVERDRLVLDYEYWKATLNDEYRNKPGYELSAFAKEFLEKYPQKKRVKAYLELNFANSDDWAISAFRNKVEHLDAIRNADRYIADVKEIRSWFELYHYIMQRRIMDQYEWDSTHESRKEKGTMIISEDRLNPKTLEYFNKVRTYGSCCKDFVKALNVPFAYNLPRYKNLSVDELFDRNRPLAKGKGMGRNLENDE
Protocol: (§1) RNA was extracted from PURExpress cell lysate expressions following the Quick-RNA™ Miniprep Kit (Zymo Research) and eluted in 30-50 μL of water. 5′ ends of the processed crRNA were mono-phosphorylated with 10 units of T4 Polynucleotide Kinase, 40 units of Murine RNase Inhibitor, and 1X of T4 DNA Ligase Buffer (NEB Inc.) in 25-50 μL reactions. Following a 30-minute incubation at 37° C., reactions were stopped with column purification using Monarch® RNA Cleanup Kit ([…]) (NEB Inc.). The total concentration of the transcripts were measured on a Nanodrop, Tapestation, and Qubit.
(§2) 100ng-1pg of total RNA from each sample were prepped for RNA sequencing using the NEBNext Small RNA Library Prep Set for Illumina (NEB Inc.). Amplicons between 150-300 bp were quantified by Tapestation and Qubit and pooled to a concentration of 4 nM. A concentration of […] was loaded into a MiSeq V3 kit and sequenced in a Miseq system (Illumina) for 176 total cycles. The RNAseq reads were used to identify the processed crRNA sequences. Illumina adapters were removed from all reads using fastp (see e.g., Bioinformatics 2018, 34 (17), i884-i890, which is incorporated by reference herein in its entirety). […]

MG103-12 = target: T2, MG103-12 (uncultivated organism); assay: crRNA processing by RNAseq: 30 nt repeat, 21 nt spacer
T2 chain: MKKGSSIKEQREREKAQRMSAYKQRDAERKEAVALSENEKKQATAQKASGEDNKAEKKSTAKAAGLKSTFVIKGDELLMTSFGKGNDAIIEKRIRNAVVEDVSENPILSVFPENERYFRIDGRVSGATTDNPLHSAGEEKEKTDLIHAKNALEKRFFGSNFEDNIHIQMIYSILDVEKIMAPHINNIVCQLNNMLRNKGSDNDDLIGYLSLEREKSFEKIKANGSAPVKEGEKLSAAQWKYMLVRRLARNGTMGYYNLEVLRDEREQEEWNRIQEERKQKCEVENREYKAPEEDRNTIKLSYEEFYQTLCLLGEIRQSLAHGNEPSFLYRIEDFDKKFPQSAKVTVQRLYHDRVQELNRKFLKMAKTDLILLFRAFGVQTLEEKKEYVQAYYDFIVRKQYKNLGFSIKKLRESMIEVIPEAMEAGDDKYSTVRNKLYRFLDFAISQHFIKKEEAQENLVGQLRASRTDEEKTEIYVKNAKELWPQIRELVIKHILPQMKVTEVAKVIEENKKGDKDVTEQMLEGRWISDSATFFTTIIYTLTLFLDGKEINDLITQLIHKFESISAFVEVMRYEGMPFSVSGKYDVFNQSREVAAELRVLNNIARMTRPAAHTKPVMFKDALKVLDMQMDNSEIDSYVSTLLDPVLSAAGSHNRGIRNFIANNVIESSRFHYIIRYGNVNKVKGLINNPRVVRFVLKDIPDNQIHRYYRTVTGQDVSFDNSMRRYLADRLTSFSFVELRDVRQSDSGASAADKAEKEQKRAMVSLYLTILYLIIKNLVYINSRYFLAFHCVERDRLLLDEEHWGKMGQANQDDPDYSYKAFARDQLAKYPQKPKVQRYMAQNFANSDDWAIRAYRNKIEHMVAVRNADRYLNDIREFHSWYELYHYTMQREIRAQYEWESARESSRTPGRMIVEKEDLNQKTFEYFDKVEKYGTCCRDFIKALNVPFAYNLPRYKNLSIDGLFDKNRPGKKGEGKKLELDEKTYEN
Protocol: as §1, §2

MG105-1 = target: T3, MG105-1 (uncultivated organism); assay: crRNA processing: 10 nt trimmed 5' of spacer, 36 nt repeat retained; spacer 5' of repeat
T3 chain: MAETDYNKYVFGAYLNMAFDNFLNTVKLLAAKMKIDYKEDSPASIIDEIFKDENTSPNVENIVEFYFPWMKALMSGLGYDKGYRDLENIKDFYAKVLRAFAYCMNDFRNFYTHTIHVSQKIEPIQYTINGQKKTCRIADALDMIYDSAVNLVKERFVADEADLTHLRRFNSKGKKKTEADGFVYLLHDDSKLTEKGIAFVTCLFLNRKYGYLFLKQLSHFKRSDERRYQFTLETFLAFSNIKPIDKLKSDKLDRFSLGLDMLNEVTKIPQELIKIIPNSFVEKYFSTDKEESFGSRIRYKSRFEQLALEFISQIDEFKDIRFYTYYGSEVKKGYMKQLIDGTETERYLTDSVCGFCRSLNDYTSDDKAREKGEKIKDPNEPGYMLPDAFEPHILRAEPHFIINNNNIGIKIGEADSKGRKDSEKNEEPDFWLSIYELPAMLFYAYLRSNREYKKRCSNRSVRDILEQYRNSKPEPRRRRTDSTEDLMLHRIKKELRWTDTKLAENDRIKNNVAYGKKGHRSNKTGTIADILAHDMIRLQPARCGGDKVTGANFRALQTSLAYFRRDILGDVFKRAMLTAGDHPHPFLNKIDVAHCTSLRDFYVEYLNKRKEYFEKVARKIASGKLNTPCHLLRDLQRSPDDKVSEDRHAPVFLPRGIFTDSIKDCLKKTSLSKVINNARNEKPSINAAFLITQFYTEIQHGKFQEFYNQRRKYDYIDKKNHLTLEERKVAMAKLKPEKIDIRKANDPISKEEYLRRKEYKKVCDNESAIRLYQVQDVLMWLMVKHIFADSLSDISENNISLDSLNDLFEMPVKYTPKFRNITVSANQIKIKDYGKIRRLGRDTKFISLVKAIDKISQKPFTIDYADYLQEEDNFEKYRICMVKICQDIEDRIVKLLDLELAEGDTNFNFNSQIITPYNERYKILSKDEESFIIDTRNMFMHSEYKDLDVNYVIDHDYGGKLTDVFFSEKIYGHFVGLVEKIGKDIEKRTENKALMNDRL
Protocol: as §1, §2

B1: 103-6_MA_30_REV array (ssRNA)
RNA: GGAACUACACCCUUACGAACUCGUAGGGGUCUGAAACCCGUCCAGCUCGACCAGGAUGGGAACAACGGAACUACACCCUUACGAACUCGUAGGGGUCUGAAACAGGCUAGGUGGAGGCUCAGUG
binding result (MG103-6): binds

B2: 103-12_MA_30_FWD array (ssRNA)
RNA: GGAACUACACCCUUACCGAUUGGUAAGGGUCUGAAACCCGUCCAGCUCGACCAGGAUGGGAACAACGGAACUACACCCUUACCGAUUGGUAAGGGUCUGAAACAGGCUAGGUGGAGGCUCAGUG
binding result (MG103-12): binds

B3: 105-1_MA_30_REV array (ssRNA)
RNA: GGUUGUAACAGCCUUUAGUUUGUAAGGUAAAAACAACCCGUCCAGCUCGACCAGGAUGGGAACAACGGUUGUAACAGCCUUUAGUUUGUAAGGUAAAAACAACAGGCUAGGUGGAGGCUCAGUG
binding result (MG105-1): binds
